Test results taken from US20230295327A1.

Biological target: IL-12 receptor of human T cells (human) (UniProt P42701)
Experiment: cell-based or functional assay

Sequence of IL-12 receptor of human T cells (human) (Q99665 24-862, chain 2 of 2, other chains not shown): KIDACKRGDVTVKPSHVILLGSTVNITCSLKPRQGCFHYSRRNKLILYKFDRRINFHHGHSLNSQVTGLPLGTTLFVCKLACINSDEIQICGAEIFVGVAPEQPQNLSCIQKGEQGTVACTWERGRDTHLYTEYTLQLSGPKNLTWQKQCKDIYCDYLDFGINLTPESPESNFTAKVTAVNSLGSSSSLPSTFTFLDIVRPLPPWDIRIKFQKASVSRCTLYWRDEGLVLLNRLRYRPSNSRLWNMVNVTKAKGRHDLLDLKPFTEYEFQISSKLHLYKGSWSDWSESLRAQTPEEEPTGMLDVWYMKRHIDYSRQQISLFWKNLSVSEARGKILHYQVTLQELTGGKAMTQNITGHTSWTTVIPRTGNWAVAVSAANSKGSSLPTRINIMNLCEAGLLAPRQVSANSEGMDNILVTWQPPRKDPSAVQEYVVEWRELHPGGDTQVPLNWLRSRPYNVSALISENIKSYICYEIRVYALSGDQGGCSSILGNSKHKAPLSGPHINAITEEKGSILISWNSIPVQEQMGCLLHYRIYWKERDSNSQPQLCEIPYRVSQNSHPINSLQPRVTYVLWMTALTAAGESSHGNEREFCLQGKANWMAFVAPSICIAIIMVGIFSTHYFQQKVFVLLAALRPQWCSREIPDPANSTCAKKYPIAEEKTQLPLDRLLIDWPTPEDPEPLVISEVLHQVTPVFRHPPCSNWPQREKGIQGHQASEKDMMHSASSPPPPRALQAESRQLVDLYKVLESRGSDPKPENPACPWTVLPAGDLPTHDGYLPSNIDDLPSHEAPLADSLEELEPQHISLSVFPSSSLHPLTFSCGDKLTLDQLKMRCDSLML

p-STAT4 (Tyr693) AlphaLISA in activated human T cells, EC50: 0.195 ng/mL
Substance: recombinant human IL-12 (from UniProt P29459 23-219; P29460 23-328) (ligand)
